# Assay results taken from IntAct's records for PubMed 15234987.
# Target: fog1_mouse Zfpm1 (UniProt O35615)
# Sequence (O35615 whole entry): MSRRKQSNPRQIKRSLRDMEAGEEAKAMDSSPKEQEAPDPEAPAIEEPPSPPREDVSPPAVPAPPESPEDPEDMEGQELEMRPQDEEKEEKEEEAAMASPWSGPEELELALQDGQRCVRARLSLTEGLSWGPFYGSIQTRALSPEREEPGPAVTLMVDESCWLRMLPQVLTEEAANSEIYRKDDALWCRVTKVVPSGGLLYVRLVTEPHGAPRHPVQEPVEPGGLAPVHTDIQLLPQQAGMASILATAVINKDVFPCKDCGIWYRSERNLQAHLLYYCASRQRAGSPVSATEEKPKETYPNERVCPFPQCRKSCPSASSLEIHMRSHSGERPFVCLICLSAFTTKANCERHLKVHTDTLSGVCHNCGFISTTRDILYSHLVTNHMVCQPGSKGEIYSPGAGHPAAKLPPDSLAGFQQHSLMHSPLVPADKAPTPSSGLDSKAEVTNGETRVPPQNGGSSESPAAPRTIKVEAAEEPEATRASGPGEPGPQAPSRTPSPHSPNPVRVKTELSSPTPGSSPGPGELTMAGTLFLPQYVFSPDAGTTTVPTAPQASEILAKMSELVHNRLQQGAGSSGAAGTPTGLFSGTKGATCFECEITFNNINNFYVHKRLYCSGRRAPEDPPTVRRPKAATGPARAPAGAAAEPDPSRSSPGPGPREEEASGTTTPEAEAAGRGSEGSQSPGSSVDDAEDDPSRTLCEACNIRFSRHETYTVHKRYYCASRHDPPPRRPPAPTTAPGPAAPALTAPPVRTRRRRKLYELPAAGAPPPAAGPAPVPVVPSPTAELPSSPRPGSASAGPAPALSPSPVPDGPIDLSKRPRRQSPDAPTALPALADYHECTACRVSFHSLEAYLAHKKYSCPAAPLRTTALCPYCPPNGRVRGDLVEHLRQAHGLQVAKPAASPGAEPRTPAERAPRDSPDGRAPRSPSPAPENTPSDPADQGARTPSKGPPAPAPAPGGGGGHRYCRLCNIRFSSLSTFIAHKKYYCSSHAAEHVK
# Chain of Transforming acidic coiled-coil-containing protein 3 (Mus musculus), Q9JJ11 D622A;D623A (Q9JJ11 whole entry D622A/D623A): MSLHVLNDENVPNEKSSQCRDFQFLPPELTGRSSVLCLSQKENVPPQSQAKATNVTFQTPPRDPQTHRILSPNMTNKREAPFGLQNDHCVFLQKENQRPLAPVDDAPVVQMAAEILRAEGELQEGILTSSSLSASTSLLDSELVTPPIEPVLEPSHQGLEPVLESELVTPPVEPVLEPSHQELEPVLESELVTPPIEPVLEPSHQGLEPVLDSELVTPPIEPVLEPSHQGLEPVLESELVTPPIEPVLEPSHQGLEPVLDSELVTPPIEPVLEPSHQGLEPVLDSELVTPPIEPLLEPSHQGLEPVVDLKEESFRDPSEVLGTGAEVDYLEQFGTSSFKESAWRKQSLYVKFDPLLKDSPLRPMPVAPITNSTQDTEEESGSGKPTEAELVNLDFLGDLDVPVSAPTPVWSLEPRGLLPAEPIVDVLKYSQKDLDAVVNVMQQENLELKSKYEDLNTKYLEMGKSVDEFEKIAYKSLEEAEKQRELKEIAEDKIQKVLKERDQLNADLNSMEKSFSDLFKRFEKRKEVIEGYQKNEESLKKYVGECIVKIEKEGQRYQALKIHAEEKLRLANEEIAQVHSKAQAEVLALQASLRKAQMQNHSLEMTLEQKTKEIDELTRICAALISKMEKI
# Chain of Transforming acidic coiled-coil-containing protein 3 (Mus musculus), Q9JJ11 R619A;I620A (Q9JJ11 whole entry R619A/I620A): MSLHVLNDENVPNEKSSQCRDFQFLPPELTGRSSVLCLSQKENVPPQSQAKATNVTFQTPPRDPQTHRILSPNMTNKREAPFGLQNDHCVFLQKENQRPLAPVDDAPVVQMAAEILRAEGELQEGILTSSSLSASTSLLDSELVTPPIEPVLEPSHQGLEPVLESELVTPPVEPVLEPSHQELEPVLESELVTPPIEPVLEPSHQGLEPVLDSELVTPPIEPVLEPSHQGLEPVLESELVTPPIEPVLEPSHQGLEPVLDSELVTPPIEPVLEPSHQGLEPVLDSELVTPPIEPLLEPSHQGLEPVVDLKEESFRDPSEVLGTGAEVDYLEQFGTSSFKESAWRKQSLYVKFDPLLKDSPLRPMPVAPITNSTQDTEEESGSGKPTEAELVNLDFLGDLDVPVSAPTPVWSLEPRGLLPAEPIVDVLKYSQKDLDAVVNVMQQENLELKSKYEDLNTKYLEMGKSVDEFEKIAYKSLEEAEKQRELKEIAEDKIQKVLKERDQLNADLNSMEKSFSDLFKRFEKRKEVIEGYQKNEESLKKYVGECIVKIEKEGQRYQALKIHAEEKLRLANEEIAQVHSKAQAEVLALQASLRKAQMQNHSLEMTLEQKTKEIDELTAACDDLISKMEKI
# Chain of Transforming acidic coiled-coil-containing protein 3 (Mus musculus), Q9JJ11 D615A;E616A (Q9JJ11 whole entry D615A/E616A): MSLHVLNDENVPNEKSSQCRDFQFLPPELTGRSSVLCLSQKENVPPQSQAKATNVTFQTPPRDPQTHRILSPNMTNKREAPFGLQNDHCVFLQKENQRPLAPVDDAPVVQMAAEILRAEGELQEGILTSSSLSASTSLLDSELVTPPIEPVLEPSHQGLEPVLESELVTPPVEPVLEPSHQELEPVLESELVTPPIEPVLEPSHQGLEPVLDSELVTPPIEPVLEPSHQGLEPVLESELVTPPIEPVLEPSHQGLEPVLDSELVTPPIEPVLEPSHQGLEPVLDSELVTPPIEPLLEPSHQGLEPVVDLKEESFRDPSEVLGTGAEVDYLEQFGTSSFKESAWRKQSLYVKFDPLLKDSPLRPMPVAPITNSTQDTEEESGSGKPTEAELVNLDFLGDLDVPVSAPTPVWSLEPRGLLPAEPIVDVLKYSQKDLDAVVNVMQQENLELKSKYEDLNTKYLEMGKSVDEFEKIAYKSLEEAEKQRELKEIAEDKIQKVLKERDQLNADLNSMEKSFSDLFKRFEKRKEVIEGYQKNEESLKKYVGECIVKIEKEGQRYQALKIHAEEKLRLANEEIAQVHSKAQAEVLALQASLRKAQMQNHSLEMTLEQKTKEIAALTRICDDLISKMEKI
# Chain of Transforming acidic coiled-coil-containing protein 3 (Mus musculus), Q9JJ11 I625A;S626A (Q9JJ11 whole entry I625A/S626A): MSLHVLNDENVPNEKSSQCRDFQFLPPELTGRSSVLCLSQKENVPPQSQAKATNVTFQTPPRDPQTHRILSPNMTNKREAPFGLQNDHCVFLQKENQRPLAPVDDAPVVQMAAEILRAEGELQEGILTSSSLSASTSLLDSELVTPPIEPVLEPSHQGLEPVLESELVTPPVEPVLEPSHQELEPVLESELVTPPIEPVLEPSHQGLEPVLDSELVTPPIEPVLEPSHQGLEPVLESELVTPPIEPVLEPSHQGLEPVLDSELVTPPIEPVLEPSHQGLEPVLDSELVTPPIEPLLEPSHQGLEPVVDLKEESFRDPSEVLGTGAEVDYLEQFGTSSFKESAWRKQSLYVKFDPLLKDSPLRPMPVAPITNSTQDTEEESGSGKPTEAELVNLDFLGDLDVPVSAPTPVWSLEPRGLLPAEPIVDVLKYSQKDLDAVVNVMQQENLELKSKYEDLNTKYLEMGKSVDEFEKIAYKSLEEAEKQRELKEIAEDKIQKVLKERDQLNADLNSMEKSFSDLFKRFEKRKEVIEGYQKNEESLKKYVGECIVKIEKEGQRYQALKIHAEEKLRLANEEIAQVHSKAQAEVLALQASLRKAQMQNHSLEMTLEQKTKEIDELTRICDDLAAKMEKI
# Chain of Transforming acidic coiled-coil-containing protein 3 (Mus musculus), Q9JJ11 E629A;K630A (Q9JJ11 whole entry E629A/K630A): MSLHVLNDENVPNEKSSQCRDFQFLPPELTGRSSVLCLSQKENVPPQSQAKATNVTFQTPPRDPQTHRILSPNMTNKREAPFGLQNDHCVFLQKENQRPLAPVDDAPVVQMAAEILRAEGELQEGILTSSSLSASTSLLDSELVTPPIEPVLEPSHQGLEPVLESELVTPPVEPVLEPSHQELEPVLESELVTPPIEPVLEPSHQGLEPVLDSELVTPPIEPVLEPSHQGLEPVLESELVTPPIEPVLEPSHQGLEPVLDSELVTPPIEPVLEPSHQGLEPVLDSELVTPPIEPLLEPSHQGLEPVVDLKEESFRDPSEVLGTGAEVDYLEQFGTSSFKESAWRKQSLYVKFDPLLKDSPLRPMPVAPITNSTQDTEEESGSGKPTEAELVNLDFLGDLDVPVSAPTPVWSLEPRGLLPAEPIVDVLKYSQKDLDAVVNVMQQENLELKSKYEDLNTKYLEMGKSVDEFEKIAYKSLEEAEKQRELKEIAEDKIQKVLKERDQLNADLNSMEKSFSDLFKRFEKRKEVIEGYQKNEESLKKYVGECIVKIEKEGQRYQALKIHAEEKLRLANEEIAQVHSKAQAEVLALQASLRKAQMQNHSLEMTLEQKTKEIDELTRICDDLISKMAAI
row,Substance,effect of a mutation on the interaction
1,"Transforming acidic coiled-coil-containing protein 3 (Mus musculus), Q9JJ11 D622A;D623A",decreasing interaction
2,"Transforming acidic coiled-coil-containing protein 3 (Mus musculus), Q9JJ11 E629A;K630A",decreasing interaction
3,"Transforming acidic coiled-coil-containing protein 3 (Mus musculus), Q9JJ11 D615A;E616A",decreasing interaction

# Further lines, results first:
row,effect of a mutation on the interaction,Substance
1,decreasing interaction,"Transforming acidic coiled-coil-containing protein 3 (Mus musculus), Q9JJ11 R619A;I620A"
2,decreasing interaction,"Transforming acidic coiled-coil-containing protein 3 (Mus musculus), Q9JJ11 I625A;S626A"
